US20240409645A1
Residue numbers refer to the chain shown, from its start.

B1: 1-MP01H01 (VHH)
VHH: EVQLVESGGGLVQAGGSLRLSCAASGRTFRTHNMGWFRRAPGKEREFVAAISWNVDNTLYADSVKGRFTISRDNGRNMVYLQMNSLKPEDTAVYYCAADNIPLSSDVAATATEYDYWGQGTQVTVSS
B2: 2-MP01A02 (VHH)
VHH: QVQLVESGGGLVQPGGSLRLSCATSGFTFRNNFMSWVRQAPGKGLEWVSTISYGGESTTYAESVKGRFTISRDNAKNTLYLQMNNLKPEDTAVYYCAKATSYDSIRSGSRGQGTQVTVSS
B3: 3-MP01E03 (VHH)
VHH: QVQLVESGGGLVQAGGSLRLSCTASGRTLSSYSMAWFRQAADKGREFVTAISSSGVVTHVLDSVKGRFTISRDNAKNTVYLQMNSLQPEDTALYFCAGTASSYSTYEANYNYWGQGTLVTVSS
B4: 5-MP01F05 (VHH)
VHH: EVQLVESGGGLVQAGGSLRLSCAASIRAFTTWSMAWFRQAPGKEREYVARINVSGSVTYYADFVKGRFTISRDNAKKTMYLEMNNLKPEDTALYYCAADRTGVGTNDYNYWGQGTQVTVSS
B5: 6-MP01G05 (VHH)
VHH: QVQLQESGGGLVQAGGSLRLSCAASGRTFSSYAMGWFRQAPGKEREFVAVISWNVDNTEYTDSVKGRFTISRDNDKNMVYLQMNSLKPEDTAVYYCAADSIPLSSDMSPTATEYGYWGQGTQVTVSS
B6: 07-MP01G08 (VHH)
VHH: EVQLVESGGGLVQAGGSLRLSCAASGRAFSMYNMGWFRQAPGKEREFVAATGWSGANTPYADSVKGRFTISRDNTQNTVYLQMNSLKPEDTATYYCAADSIRLRSDVTRIPLEYDYWGQGTQVTVSS
B7: 8-MP01C12 (VHH)
VHH: B2 VHH with R30S, W47F, S63A, V93I, D103T, S107G, G108A, S109P
B8: FJ1427_P035MP01A01 (VHH)
VHH: EVQLVESGGGLVQAGDSLRLSCAASGRSFRNYILAWYRQAPGKEREFLAAISWLDGTLYADSVEDRFTISRDNPKNTVHLQMDNLKPEDTAVYYCAADRGPVRPVLAPDVDYWGQGTQVSVSS
B9: FJ1427_P035MP01B01 (VHH)
VHH: EVQLVESGGGWVQAGDSLRLSCAASGRTFRNYVMGWFRQVPGKEREFLSVITSLGGTVYADSVANRFTISRDNPKDTVYLQMDSLKPEDTAVYYCAADRGPARYISASDVDYWGQGTQVTASS
B10: FJ1427_P035MP01G01 (VHH)
VHH: B1 VHH with E1Q, V5Q, G75D, Y95F, A108R, Y114F, D115G, Q122R
B11: FJ1427_P035MP01E02 (VHH)
VHH: B8 VHH with E1Q, S120T
B12: FJ1427_P035MP01F02 (VHH)
VHH: B1 VHH with E1Q, V5Q, V55I, T58K, F68S, R76G, Y80F, N100K, Y116D
B13: FJ1427_P035MP01H02 (VHH)
VHH: QLQLVESGGGLVQAGDSLRLSCAASGRAFSRYAVGWFRMAPGKGREFVSAINSSGANTYVLDSVKGRFTISRDNDKNTAYLQMDSLQPEDTAVYWCAATSSSYSTYEANYNVWGQGTQVTVSS
B14: FJ1427_P035MP01C03 (VHH)
VHH: B2 VHH with Q1E
B15: FJ1427_P035MP01D03 (VHH)
VHH: B2 VHH with Q1E, K43E
B16: FJ1427_P035MP01F03 (VHH)
VHH: B2 VHH with T24A, R30S, I105V
B17: FJ1427_P035MP01G03 (VHH)
VHH: B8 VHH with E1Q, R99Q, S120T
B18: FJ1427_P035MP01D04 (VHH)
VHH: B9 VHH with E1Q, A14P, T28S, S53W, V58L, Y59D, N65D, P74S, D76N, A121V
B19: FJ1427_P035MP01E04 (VHH)
VHH: B8 VHH with E1Q, A24V, L58F, D61N, D65G, N84G, S120T, S122A
B20: FJ1427_P035MP04H09 (VHH)
VHH: EVQLVESGGGWVQVGESLRLSCAPSGRTFVSGIMGWFRQAPGKEREFVARIILNNNSTRYTDSVKGRFTISRDSAKNTMYLQMNTLRPEDTAVYYCAARDRYGSGNSLSPSAYDYWGQGTQVTVSS
B21: FJ1427_P035MP04A10 (VHH)
VHH: B20 VHH
B22: FJ1427_P035MP04B10 (VHH)
VHH: B20 VHH with T61I, N84D, T85S, S126L
B23: FJ1427_P035MP04C10 (VHH)
VHH: B20 VHH with E1Q, V5Q, A23V
B24: FJ1427_P035MP04F10 (VHH)
VHH: B20 VHH with E1Q, V2L, A23V, L53S
B25: FJ1427_P035MP04G10 (VHH)
VHH: B20 VHH with E1Q, N55S, V64A, N84D, T85S
B26: FJ1427_P035MP04H10 (VHH)
VHH: B20 VHH with E1Q, W11L, V14A, E16G, T61I, N84D, T85S
B27: FJ1427_P035MP04A11 (VHH)
VHH: QVQLVESGGGLVQAGESLRLSCAASGPTASRVAVAWFRQVPGKEREFVAVVNRPGTMTKYADSVKGRFTISRDSAKNTVYLQMNSLKPEDTAVYYCAADSVPYGRPYYFQTSAGNYDYWGQGTQVTVSS
B28: FJ1427_P035MP04B11 (VHH)
VHH: B20 VHH with T61I, N84D, T85S
B29: FJ1427_P035MP04C11 (VHH)
VHH: B27 VHH with A14H, E16G, A29F, A35G, T56S, T69N, S74T, Q110T, N115D
B30: FJ1427_P035MP04D11 (VHH)
VHH: EVQLVESGGGLVQAGGSLRLSCAASGRTFGAVAVGWFRQVPGKEREFVAAINRSGSATKYADSVKGRFTISRDNAESPVFLQMNSLKPEDTAVYYCAADSLPYGRPYYFQTSAGEYDYWGQGTQVTVSS
B31: FJ1427_P035MP04F11 (VHH)
VHH: B20 VHH with E1Q, A40T, M79L
B32: FJ1427_P035MP04G11 (VHH)
VHH: B20 VHH with E1Q, K43E
B33: FJ1427_P035MP04H11 (VHH)
VHH: B20 VHH with E1Q, L18P, A40T
B34: FJ1427_P035MP04C12 (VHH)
VHH: B20 VHH with T61I, N84D, T85S
B35: FJ1427_P035MP04D12 (VHH)
VHH: B20 VHH with E1Q, E16K, T61I, N84D, T85S
B36: FJ1427_P035MP04E12 (VHH)
VHH: B20 VHH with E1Q, V2L, V30A

Target: T1, mouse IL-2Rα (mouse) (UniProt P01590)
T1 sequence (looked up): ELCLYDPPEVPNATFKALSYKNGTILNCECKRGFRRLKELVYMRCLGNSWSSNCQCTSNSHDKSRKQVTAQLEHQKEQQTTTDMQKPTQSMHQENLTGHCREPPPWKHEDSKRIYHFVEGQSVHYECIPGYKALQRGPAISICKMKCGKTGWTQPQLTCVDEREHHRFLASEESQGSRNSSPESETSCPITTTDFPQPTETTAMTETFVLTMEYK
Assay: ELISA, P.E. on coated antigen

Binder | OD (PE binding ELISA) [OD450 nm]
B1 | 0.048
B2 | 0.046
B3 | 0.046
B4 | 0.046
B5 | 0.046
B6 | 0.046
B7 | 0.045
B8 | 0.046
B9 | 0.046
B10 | 0.053
B11 | 0.046
B12 | 0.046
B13 | 0.047
B14 | 0.045
B15 | 0.048
B16 | 0.045
B17 | 0.048
B18 | 0.045
B19 | 0.046

Target: T2, mouse IL-2Rγ (mouse) (UniProt P34902)
T2 sequence (looked up): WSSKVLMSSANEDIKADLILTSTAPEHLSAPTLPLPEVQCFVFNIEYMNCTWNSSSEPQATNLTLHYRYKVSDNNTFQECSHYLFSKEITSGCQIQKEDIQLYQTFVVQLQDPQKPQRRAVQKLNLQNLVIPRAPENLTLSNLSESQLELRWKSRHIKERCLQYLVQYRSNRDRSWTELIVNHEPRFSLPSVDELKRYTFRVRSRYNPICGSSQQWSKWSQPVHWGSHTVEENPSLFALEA
Assay: PE binding ELISA, periplasmic extract on coated protein

Binder | OD (PE binding ELISA) [OD450 nm]
B20 | 0.05
B21 | 0.048
B22 | 0.047
B23 | 0.047
B24 | 0.048
B25 | 0.049
B26 | 0.049
B27 | 0.05
B28 | 0.047
B29 | 0.047
B30 | 0.048
B31 | 0.049
B32 | 0.048
B33 | 0.049
B34 | 0.048
B35 | 0.054
B36 | 0.051
